In US20210101998A1 (Pfizer, published 2021):
Read-outs that look alike come from different tables or passages of the source.

Legend:
[1] = biological target: T1, humTFPI K1K2 (human); assay: SPR, antibody ligand, TFPI analyte;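 on result: surface plasmon resonance on a BIAcore T200 at 25 °C, test antibody captured on immobilized anti-human IgG, TFPI K1K2 flowed as analyte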
T1 construct: Biotinylated on the AviTag for ELISA; also called Human TFPIα K1K2; humTFPI K1K2-aviHis10
Protocol: (§1) The flow cells were activated by injecting a 1:1 mixture of 400 mM 1-Ethyl-3-(3-dimethylaminopropyl) carbodiimide hydrochloride (EDC) and N-hydroxysuccinimide (NHS) for 7 minutes at a flow rate of 10 μl/minute. Anti-human IgG antibody was diluted to 25 μg/ml in 10 mM Sodium Acetate pH 5.0 and injected over all flow cells for 7 minutes at 10 ul/minute. All flow cells were blocked with 1 M Ethanolamine-HCL (ETH) for 7 minutes at 10 μl/minute. Final immobilization level of the capture antibody was approximately 10,000 resonance units (RU). The running buffer for immobilization and kinetics was 10 mM HEPES pH 7.4, 150 mM NaCl, 3 mM EDTA, 0.05% (v/v) Tween-20 (HBS-EP+). […] Flow cell 1 was used as a reference surface. […] At the end of each cycle, the entire anti-IgG surface was regenerated by a 60 second pulse of 3 M MgCl2. Kinetic assays were conducted at 25° C. at a collection rate of 10 Hz on a BIAcore T200 instrument (GE Healthcare). Rate constants and affinities were determined by fitting the data to a 1:1 model in BIAcore T200 Evaluation software version 1.0 (GE).

[2] = biological target: T2, murTFPI K1K2 (mouse); assay: SPR, antibody ligand, TFPI analyte;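 on result: surface plasmon resonance on a BIAcore T200 at 25 °C, test antibody captured on immobilized anti-human IgG, TFPI K1K2 flowed as analyte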
T2 construct: also called Mouse TFPI K1K2; mouse TFPI
T2 chain: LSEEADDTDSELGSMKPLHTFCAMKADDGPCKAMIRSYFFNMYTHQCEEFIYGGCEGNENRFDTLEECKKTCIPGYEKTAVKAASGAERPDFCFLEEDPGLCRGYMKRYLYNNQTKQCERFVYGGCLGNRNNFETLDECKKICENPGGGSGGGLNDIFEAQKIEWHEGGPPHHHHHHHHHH
Protocol: as §1

[3] = biological target: T3, rabTFPI K1K2 (rabbit, limits assumed); assay: SPR, antibody ligand, TFPI analyte
T3 construct: also called Rabbit TFPI K1K2; rabbit TFPI
T3 chain: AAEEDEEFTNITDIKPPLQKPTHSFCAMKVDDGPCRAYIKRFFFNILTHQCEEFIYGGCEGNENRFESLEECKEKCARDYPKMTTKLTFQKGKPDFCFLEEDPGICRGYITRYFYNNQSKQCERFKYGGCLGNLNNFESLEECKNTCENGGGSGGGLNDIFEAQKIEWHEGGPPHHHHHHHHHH
Protocol: as §1

[4] = biological target: T4, cynTFPI K1K2 (cynomolgus monkey); assay: SPR, antibody ligand, TFPI analyte;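 further: surface plasmon resonance on a BIAcore T200 at 25 °C, test antibody captured on immobilized anti-human IgG, TFPI K1K2 flowed as analyte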
T4 construct: also called Cynomolgus Monkey TFPI K1K2; cyno TFPI K1K2
Protocol: as §1

[5] = biological target: T5, cyno K1 (cynomolgus monkey, UniProt Q28864 29-115 (rhesus entry), limits assumed); assay: not told
T5 construct: also called K1 domain alone
T5 chain: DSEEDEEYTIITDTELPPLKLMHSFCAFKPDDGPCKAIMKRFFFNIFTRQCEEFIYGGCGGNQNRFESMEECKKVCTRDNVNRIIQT

[6] = biological target: T6, cyno TFPI K2 (cynomolgus monkey, UniProt Q28864 116-177 (rhesus entry), limits assumed); assay: not told
T6 construct: K2 fragment cut out of cynTFPI K1K2 with human neutrophil elastase, residual AviTag trimmed with AspN; also called Cynomolgus TFPI K2 domain; cyno K2
Protocol: Based on buried surface area (BSA) and percent BSA (% BSA) for residues at the Fab TFPI K1K2 interface, the epitope and paratope of the complex were determined.

[7] = biological target: T1, humTFPI K1K2; assay: cell-based or functional assay
[8] = biological target: T1, humTFPI K1K2; assay: cell-based or functional assay; remark: listed apart in the source
[9] = biological target: T1, humTFPI K1K2; assay: SPR, antibody ligand, TFPI analyte; remark: listed apart in the source
[10] = biological target: T3, rabTFPI K1K2; assay: SPR, antibody ligand, TFPI analyte
[11] = biological target: T1, humTFPI K1K2; assay: ELISA, biotinylated TFPI on streptavidin plate
Protocol: (§2) Purified anti-TFPI antibodies were diluted to 1 ug/ml in ELISA assay buffer, then serially diluted three-fold to generate an eight-point dilution series. The diluted antibodies were added at a volume of 100 uL per well. The plates were incubated at room temperature for 2 hours. After washing the plates with PBS/0.05% Tween 20, the plates were incubated with a goat anti-mouse IgG-Fc polyclonal antibody conjugated with horseradish peroxidase (Pierce) at 1:10,000 dilution. After 1 hour of incubation, bound antibody was detected with the addition of a TMB substrate solution. Absorbances were read a 450 nm, and the data were analyzed by GraphPad Prism software.

[12] = biological target: T3, rabTFPI K1K2; assay: ELISA, biotinylated TFPI on streptavidin plate
Protocol: as §2

[13] = biological target: T7, ratTFPI K1K2 (rat); assay: SPR, antibody ligand, TFPI analyte;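 further: surface plasmon resonance on a BIAcore T200 at 25 °C, test antibody captured on immobilized anti-human IgG, TFPI K1K2 flowed as analyte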
T7 chain: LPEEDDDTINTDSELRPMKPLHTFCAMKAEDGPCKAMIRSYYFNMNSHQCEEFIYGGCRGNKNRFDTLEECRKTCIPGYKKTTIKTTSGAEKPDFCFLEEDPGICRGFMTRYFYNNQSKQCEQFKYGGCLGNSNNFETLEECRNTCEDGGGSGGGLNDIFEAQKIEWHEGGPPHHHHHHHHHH
Protocol: as §1

[14] = biological target: T1, humTFPI K1K2; assay: cell-based or functional assay; remark: listed apart in the source
[15] = biological target: T1, humTFPI K1K2; assay: SPR, summary table
Protocol: as §1

[16] = biological target: T2, murTFPI K1K2; assay: SPR, summary table
Protocol: as §1

[17] = biological target: T3, rabTFPI K1K2; assay: SPR, summary table
Protocol: as §1

[18] = biological target: T4, cynTFPI K1K2; assay: SPR, summary table
Protocol: as §1

[19] = biological target: T1, humTFPI K1K2; assay: cell-based or functional assay; remark: listed apart in the source
[20] = biological target: T1, humTFPI K1K2; assay: SPR, antibody ligand, TFPI analyte; remark: listed apart in the source
Protocol: as §1

[21] = biological target: T1, humTFPI K1K2; assay: SPR, antibody ligand, TFPI analyte; remark: listed apart in the source
[22] = biological target: T2, murTFPI K1K2; assay: SPR, antibody ligand, TFPI analyte
[23] = biological target: T7, ratTFPI K1K2; assay: SPR, summary table
Protocol: as §1

[24] = biological target: T1, humTFPI K1K2; assay: ELISA, biotinylated TFPI on streptavidin plate; remark: listed apart in the source
[25] = biological target: T3, rabTFPI K1K2; assay: ELISA, biotinylated TFPI on streptavidin plate
[26] = biological target: T1, humTFPI K1K2; assay: SPR, antibody ligand, TFPI analyte; remark: listed apart in the source
Protocol: as §1

Row | Binder | Kd [1] [nM] | koff [1] [s⁻¹] | kon [1] [M⁻¹ s⁻¹] | Kd [3] [nM] | koff [3] [s⁻¹] | kon [3] [M⁻¹ s⁻¹] | Kd [4] [nM] | koff [4] [s⁻¹] | kon [4] [M⁻¹ s⁻¹] | FXa EC50 [7] [nM] | FXa-FVIIa EC50 [7] [nM] | FVIIa/TF/Xa EC50 [14] [nM] | Xa Inhibition Assay EC50 [14] [nM] | Kd [15] [nM] | binding result [16] | Kd [17] [nM] | Kd [18] [nM] | other results
1 | 2A8 (antibody, human IgG1, lambda, V domains shown) VH: QVQLVESGGGLVQPGGSLRLSCAASGFTFRSYGMSWVRQAPGKGLEWVSSIRGSSSSTYYADSVKGRFTISRDNSKNTLYLQMNSLRAEDTAVYYCARKYRYWFDYWGQGTLVTVSS VL: DIELTQPPSVSVAPGQTARISCSGDNLRNYYAHWYQQKPGQAPVVVIYYDNNRPSGIPERFSGSNSGNTATLTISGTQAEDEADYYCQSWDDGVPVFGGGTKLTVLG | 10.6 | 0.00377 | 355000 | 1.69 | 0.00123 | 730000 | 13.2 | 0.00306 | 237000 | – | – | – | – | – | – | – | – | Kd [2]: 33.6 nM; koff [2]: 0.00632 s⁻¹; kon [2]: 191000 M⁻¹ s⁻¹; binding result [5]: no binding; binding result [6]: no binding
2 | 4D8.b1 (antibody, mouse IgG1, kappa, Mouse monoclonal antibody purified from a hybridoma subclone; also called mouse 4d8.b1; TFPI 4D8) light: DIVMTQSHKFMSTSVGDRVSITCKASQDVHTAVAWYQQKPGQSPRLLIYWASTRHTGVPDRFTGCGSGTDYTLTISSVQAEDLALYYCQQHYTTPYTFGGGTKLEMKADAAPTVSIFPPSSEQLTSGGASVVCFLNNFYPKDINVKWKIDGSERQNGVLNSWTDQDSKDSTYSMSSTLTLTKDEYERHNSYTCEATHKTSTSPIVKSFNRNEC heavy: EVLLQQSGPELVKPGASVKIPCKASGYTFTDYNLDWVKQSHGKSLEWIGDINPINGATLYNQKFKGKATLTVDQSSSTAYMELRSLTSEDTAVYYCSIYYGDYDAMDYWGQGASVTVSSAKTTPPSVYPLAPGSAAQTNSMVTLGCLVKGYFPEPVTVTWNSGSLSSGVHTFPAVLQSDLYTLSSSVTVPSSTWPSETVTCNVAHPASSTKVDKKIVPRDCGCKPCICTVPEVSSVFIFPPKPKDVLTITLTPKVTCVVVDISKDDPEVQFSWFVDDVEVHTAQTQPREEQFNSTFRSVSELPIMHQDWLNGKEFKCRVNSAAFPAPIEKTISKTKGRPKAPQVYTIPPPKEQMAKDKVSLTCMITDFFPEDITVEWQWNGQPAENYKNTQPIMDTDGSYFVYSKLNVQKSNWEAGNTFTCSVLHEGLHNHHTEKSLSHSPGK | – | – | – | – | – | – | – | – | – | 4.15 | 3.5 | – | – | – | – | – | – | FXa EC50 [8]: 5.9 nM; FXa-FVIIa EC50 [8]: 6.67 nM; Kd [9]: 1.19 nM; koff [9]: 0.00114 s⁻¹; kon [9]: 958000 M⁻¹ s⁻¹; Kd [10]: 0.63 nM; koff [10]: 0.00126 s⁻¹; kon [10]: 2.01e+06 M⁻¹ s⁻¹; EC50 [11]: 0.0959 nM; EC50 [12]: 0.0976 nM
3 | hz4F36 (antibody, human IgG4 S228P, kappa, V domains shown, also called Novo2021; Anti-TFPI-4F36) VH: EVQLVESGGGLVKPGGSLRLSCAASGFTFSNYAMSWVRQTPEKRLEWVATISRSGSYSYFPDSVQGRFTISRDNAKNSLYLQMNSLRAEDTAVYYCARLGGYDEGDAMDSWGQGTTVTVSS VL: DIVMTQTPLSLSVTPGQPASISCKSSQSLLESDGKTYLNWYLQKPGQSPQLLIYLVSILDSGVPDRFSGSGSGTDFTLKISRVEAEDVGVYYCLQATHFPQTFGGGTKVEIKR | 0.49 | 0.00093 | 1.89e+06 | 1.81 | 0.0076 | 4.2e+06 | 0.425 | 0.00288 | 6.86e+06 | – | – | 1.85 | 6.57 | 0.493 | no binding | 1.81 | 0.425 | binding result [13]: no binding
4 | TFPI-24 (antibody, human IgG1, lambda, V domains shown, Human IgG1-3M from phage display; also called mAb-TFPI-24; clone 24) VH: EVQLVESGGGSVQPGRSLRLSCAVSGLTIDNYAMQWVRQRPGKGLEWVSGISGNSRSIGYADSVKGRLTISRDNAKNSLYLQIDSLRADDTALYYCAIFLHESDYWGQGTLVTVSS VL: QSVLTQPPSVSGTPGQRVTISCSGSTSNIGTMYVHWYQHVPGTAPKLLIYRNNHRPSGVPDRFSGSKSGTSGSLAISGLRSEDEADYYCLAWDDTLRAYVFGTGTKVTVLG | – | – | – | – | – | – | – | – | – | – | – | – | – | – | – | – | – | FXa EC50 [19]: 23 nM; FXa-FVIIa EC50 [19]: 9.3 nM; koff [20]: 0.000862 s⁻¹; kon [20]: 159000 M⁻¹ s⁻¹; Kd [21]: 5.46 nM; koff [21]: 0.000862 s⁻¹; kon [21]: 159000 M⁻¹ s⁻¹; Kd [22]: 24.1 nM; koff [22]: 0.00596 s⁻¹; kon [22]: 248000 M⁻¹ s⁻¹
5 | TFPI-118 (antibody, human IgG1, lambda, V domains shown, Germlined variant of TFPI-24: VL of TFPI-113 paired with VH of TFPI-108) VH: EVQLVESGGGLVQPGRSLRLSCAVSGLTIDNYAMQWVRQAPGKGLEWVSGISGNSRSIGYADSVKGRFTISRDNAKNSLYLQMNSLRAEDTALYYCAIFLHESDYWGQGTLVTVSS VL: QSVLTQPPSASGTPGQRVTISCSGSTSNIGTMYVHWYQQLPGTAPKLLIYRNNHRPSGVPDRFSGSKSGTSASLAISGLRSEDEADYYCLAWDDTLRAYVFGTGTKVTVLG | – | – | – | 5.79 | – | – | – | – | – | – | – | 4.03 | 20.8 | – | – | 5.79 | – | Kd [13]: 3.65 nM; Kd [23]: 3.65 nM
6 | hz4D8 (antibody, human IgG1, kappa, V domains shown, also called 4D8-Vk1.1 × VH1.4; 4D8 Vk 1.1 × VH 1.4) VH: EVQLVESGGGLVQPGGSLRLSCAASGYTFTDYNLDWVRQAPGKGLEWVADINPINGATLYNQKFKGRFTISRDQAKNSLYLQMNSLRAEDTAVYYCARYYGDYDAMDYWGQGTLVTVSS VL: DIQMTQSPSSLSASVGDRVTITCKASQDVHTAVAWYQQKPGKAPKLLIYWASTRHTGVPSRFSGSGSGTDYTLTISSLQPEDFATYYCQQHYTTPYTFGQGTKLEIKR | 0.42 | 0.00132 | 3.16e+06 | 0.502 | 0.0029 | 3.16e+06 | 0.067 | 0.00195 | 2.93e+07 | 1.87 | 1.57 | 0.4 | 6.92 | 0.42 | no binding | 0.502 | 0.067 | EC50 [24]: 0.0493 nM; EC50 [25]: 0.0716 nM; binding result [23]: no binding; Kd [26]: 0.293 nM; koff [26]: 5.28e-05 s⁻¹; kon [26]: 221000 M⁻¹ s⁻¹
